Several values for one entry are separate records, joined by “and”; a condition that tells them apart may be missing. Equal values may be shown once.
Legend:
Details in all cases: 20 nM; 72 h
MCF10A [1] = test: 5+ nucleoli phenotype percent effect (relative to siNT 0% and siKIF11 100%); higher = more cells with five or more nucleoli
Description: (§1)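 After 72 h, cells were fixed and stained with Hoechst and anti-fibrillarin, and nucleoli per nucleus were counted with CellProfiler. Values are plate-adjusted percent effect for the one-nucleolus and 5+ nucleoli phenotypes, normalised to siNT (0%) and to the positive controls siNOL11 or siKIF11 (100%), as the mean of biological triplicates. Percent viability is the nuclei count relative to siNT.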

MCF10A [2] = test: percent viability (nuclei count relative to siNT); higher = more viable cells
Description: as §1

MCF10A [3] = test: one-nucleolus phenotype percent effect (relative to siNT 0% and siNOL11 100%); higher = more cells with one nucleolus (ribosome biogenesis inhibition)
Description: as §1

| Sequence | 5+ nucleoli phenotype percent effect (MCF10A [1]) | percent viability (MCF10A [2]) | one-nucleolus phenotype percent effect (MCF10A [3]) |
| --- | --- | --- | --- |
| AAAAACCACAAUUACUUUU [hsa-miR-548ap-3p] | -30.6% | 30.2% | 16.7% |
| AAAAACCACAAUUACUUUUGCACCA [hsa-miR-548aa] | -30.9% | 16.1% | 51.2% |
| AAAAACCACAAUUACUUUUGCACCA [hsa-miR-548t-3p] | 39.3% | 157% | -19.6% |
| AAAAACUGAGACUACUUUUGCA [hsa-miR-548e] | 40.3% | 140% | -28.9% |
| AAAAACUGCAAUCACUUUUGC [hsa-miR-548az-3p] | 7.93% | 62% | -6.63% |
| AAAAACUGUAAUUACUUUU [hsa-miR-548f] | 53.7% and 60% and 60.4% |  | -26.8% and -24.7% and -21.2% |
| AAAACCGUCUAGUUACAGUUGU [hsa-miR-1537] | 13.9% | 73.7% | -11.1% |
| AAAACGGUGAGAUUUUGUUUU [hsa-miR-553] | 65.7% | 103% | -24.2% |
| AAAACUAGGACUGUGUGGUGUA [hsa-miR-7844-5p] | -30.8% | 40.6% | 15.8% |
| AAAACUGCAGUUACUUUUGC [hsa-miR-548av-3p] | 35.1% | 83.1% | -20.6% |
| AAAACUGUAAUUACUUUUGUAC [hsa-miR-548g-3p] | 49.3% | 165% | -25.2% |
| AAAAGCACUUUUCUGUCUCCCAG [hsa-miR-6835-3p] | -36% | 41.3% | 12.3% |
| AAAAGCAUCAGGAAGUACCCA [hsa-miR-4422] | 2.92% | 58.8% | -9.65% |
| AAAAGCUGGGCUGAGAGGCG [hsa-miR-4429] | -19.2% | 38.6% | 24.9% |
| AAAAGCUGGGUUGAGAGGA [hsa-miR-320d] | -8.63% and -12.1% | 50.4% and 40.7% | 27% and 27.3% |
| AAAAGCUGGGUUGAGAGGGCAA [hsa-miR-320b] | -10.2% | 59% | 8.28% |
| AAAAGCUGGGUUGAGAGGGCGA [hsa-miR-320a] | -11.8% | 38.1% | 18.7% |
| AAAAGCUGGGUUGAGAGGGU [hsa-miR-320c] | -0.437% | 64.7% | 1.49% |
| AAAAGUAACUAUGGUUUUUGCC [hsa-miR-548bb-5p] | 30.8% | 138% | -28.8% |
| AAAAGUAACUGCGGUUUUUGA [hsa-miR-548ak] | 45.4% | 89.9% | -23.5% |
| AAAAGUAACUGCGGUUUUUGCCU [hsa-miR-548w] | 56.1% | 77.2% | -28.5% |
| AAAAGUAAUCACUGUUUUUGCC [hsa-miR-548y] | 42.1% | 73.4% | -21.4% |
| AAAAGUAAUCGCGGUUUUUGUC [hsa-miR-548h-5p] | 35.8% | 101% | -19.1% |
| AAAAGUAAUUGCAGUUUUUGC [hsa-miR-548ar-5p] | 22.8% | 134% | -24.8% |

Reference: the supplement of paper PMC10899765
